This note sets out measurements from publication PMC8191795 (Nucleic Acids Research, 2020).

Positions count from the first letter of the chain named. Names and notes keep the numbering of the source. Values joined by “and” are separate entries in the source; they are usually repeats but may differ in a detail not shown here. Equal entries are not always repeated. Where two headings read alike, the source gives them in different places.

For one data set, the target named is T1, SmcR N55I (Vibrio vulnificus, UniProt Q9L8G8 1-205, N55I).
T1 sequence: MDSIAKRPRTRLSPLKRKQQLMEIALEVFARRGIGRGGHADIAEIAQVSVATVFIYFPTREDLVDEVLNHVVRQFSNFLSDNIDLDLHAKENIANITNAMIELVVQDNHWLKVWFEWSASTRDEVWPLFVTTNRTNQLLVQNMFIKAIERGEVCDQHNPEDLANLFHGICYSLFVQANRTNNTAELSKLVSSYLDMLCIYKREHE
The data set is described as follows: EMSA.

A further data set addresses T2, SmcR WT (Vibrio vulnificus, UniProt Q9L8G8 1-205).
T2 sequence: T1 sequence with I55N
The data set is described as follows: EMSA. Background: Mobility shift assays separate free from complexed probe on a gel.

The target of data set [1] is his-tagged V. harveyi RNAP alpha subunit (Vibrio harveyi, UniProt A0A0B4IMU9 1-330). The data set is described as follows: BLI. In general terms: BLI is a label-free optical method that tracks binding on a fibre tip over time.
Data set [2] deals with the molecule itself. Put plainly: SAXS.
Data set [3] deals with the molecule itself. The data set is described as follows: SAXS. This is another data set of the same source.
For the next data set, the target named is T3, SmcR S76A (Vibrio vulnificus, UniProt Q9L8G8 1-205, S76A).
T3 sequence: T1 sequence with I55N, S76A
The data set is described as follows: EMSA.

The target in a further data set is T4, SmcR N142D (Vibrio vulnificus, UniProt Q9L8G8 1-205, N142D).
T4 sequence: T1 sequence with I55N, N142D
Put plainly: EMSA.

A further data set concerns the target T5, SmcR L139R (Vibrio vulnificus, UniProt Q9L8G8 1-205, L139R).
T5 sequence: T1 sequence with I55N, L139R
The data set is described as follows: EMSA.

As a reminder, the Kd is the constant that tells how readily two partners part at equilibrium. By stoichiometry N is commonly meant the number of molecules, sites or subunits per partner or assembly.

B1: PluxC site E T4A (JDN44/JDN45) (dsDNA)
DNA 1: TCTAATTATAGTTTGATTTATTAATAATTAGT
DNA 2: ACTAATTATTAATAAATCAAACTATAATTAGA
Turning to B1, the Kd in the data set with SmcR N55I is 13.4 nM; with SmcR WT, 1.53 nM.

B2: PluxC site E T4A,A17T (JCV1107/JCV1108) (dsDNA)
DNA 1: B1 DNA 1 with A10T
DNA 2: B1 DNA 2 with T23A
As to B2, the Kd is 1.91 nM in the data set with SmcR N55I and 2.04 nM with SmcR WT.

B3: PluxC site E A17T (JDN46/JDN47) (dsDNA)
DNA 1: B1 DNA 1 with A10T, A23T
DNA 2: B1 DNA 2 with T10A, T23A
Take B3: the dissociation constant Kd is 44.6 nM with SmcR N55I and 2.71 nM with SmcR WT.

B4: SmcR wild-type, untagged (Vibrio vulnificus) (natural protein)
chain: T1 sequence with I55N
As to B4, in data set [1], the affinity, expressed as Kd, was 142 nM.

B5: SmcR wild-type, 6Xhis-tagged (Vibrio vulnificus) (natural protein)
chain: T1 sequence with I55N
Take B5: the “stoichiometry N” value in “SAXS [2]” is 2 and 4.

B6: SmcR N55I, untagged (Vibrio vulnificus) (natural protein)
chain: T1 sequence
On to B6, for which the “stoichiometry N” value in the data set “SAXS [3]” was 2 and 4. For the same molecule, in data set [1], the Kd was determined as 160 nM.

B7: PvvpM (AB316/AB317) (dsDNA)
DNA 1: ACACTTATCTTTAGTGACAAACTCATAAATAGCAAGTTCTCACACGGTC
DNA 2: GACCGTGTGAGAACTTGCTATTTATGAGTTTGTCACTAAAGATAAGTGT
For the molecule B7, the dissociation constant (Kd) stood at 0.266 nM with SmcR N55I; 0.167 nM with SmcR S76A; 0.143 nM with SmcR WT; 0.568 nM with SmcR N142D; 0.322 nM with SmcR L139R.

B8: PvvpE (AB324/AB325) (dsDNA)
DNA 1: ATAAATCAAATTTGTAACTTTATTTCTGAGATGACTGTCCCATTTATCTTATTGATAAATCTGCGTAAAAAAGAAAAAGCACAATTTTATTACTAGTGTTT
DNA 2: AAACACTAGTAATAAAATTGTGCTTTTTCTTTTTTACGCAGATTTATCAATAAGATAAATGGGACAGTCATCTCAGAAATAAAGTTACAAATTTGATTTAT
Consider B8, for which the Kd is 142 nM in the data set with SmcR N55I; 0.363 nM with SmcR S76A; 2.18 nM in the data set with SmcR WT; 6.68 nM with SmcR N142D; 3.53 nM with SmcR L139R.
